# Data reported in PMC12423313, “Protein-based tools for the detection and characterisation of Oropouche virus infection” (EMBO Molecular Medicine, 2025).
# T1: OROV nucleoprotein (N), recombinant, strain BeAn19991 (Oropouche virus strain BeAn19991)
# T1 chain: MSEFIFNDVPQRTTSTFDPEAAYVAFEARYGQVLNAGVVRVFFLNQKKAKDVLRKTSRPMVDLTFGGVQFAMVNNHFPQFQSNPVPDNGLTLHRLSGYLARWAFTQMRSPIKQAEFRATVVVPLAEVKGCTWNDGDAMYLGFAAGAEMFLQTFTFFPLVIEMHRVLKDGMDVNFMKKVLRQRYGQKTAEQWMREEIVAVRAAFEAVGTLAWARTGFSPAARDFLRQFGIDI
# T2: OROV nucleoprotein (N) of strain BeAn19991, native, in virus stocks and infected cells (Oropouche virus strain BeAn19991)
# T2 construct: N protein of Oropouche virus strain BeAn19991, GenBank AJE24680.1, as made by the virus; also called OROV BeAn19991
# T2 chain: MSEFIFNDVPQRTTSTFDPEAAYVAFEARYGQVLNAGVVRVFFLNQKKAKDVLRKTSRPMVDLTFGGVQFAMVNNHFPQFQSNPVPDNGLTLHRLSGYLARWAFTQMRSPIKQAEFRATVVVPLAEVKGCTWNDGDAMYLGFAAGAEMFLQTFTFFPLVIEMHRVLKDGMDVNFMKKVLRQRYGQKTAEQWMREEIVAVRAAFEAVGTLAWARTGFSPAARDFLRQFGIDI
# T3: OROV nucleoprotein (N) of strain TRVL, native, in virus stock (Oropouche virus strain TRVL (stand-in: …, strain))
# T3 construct: N protein of Oropouche virus strain TRVL (Anderson et al, 1961); also called OROV TRVL
# T3 chain: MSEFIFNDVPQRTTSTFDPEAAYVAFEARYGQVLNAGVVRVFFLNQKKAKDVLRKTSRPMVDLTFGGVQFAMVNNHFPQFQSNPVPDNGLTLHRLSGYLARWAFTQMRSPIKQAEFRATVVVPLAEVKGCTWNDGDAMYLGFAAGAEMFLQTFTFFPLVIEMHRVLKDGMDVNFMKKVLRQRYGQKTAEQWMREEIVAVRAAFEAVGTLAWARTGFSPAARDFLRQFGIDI
# T4: OROV nucleoprotein (N) of the 2023-4 epidemic isolate AM0088, native (Oropouche virus isolate AM0088, strain)
# T4 construct: also called OROV AM0088 N
# T4 chain: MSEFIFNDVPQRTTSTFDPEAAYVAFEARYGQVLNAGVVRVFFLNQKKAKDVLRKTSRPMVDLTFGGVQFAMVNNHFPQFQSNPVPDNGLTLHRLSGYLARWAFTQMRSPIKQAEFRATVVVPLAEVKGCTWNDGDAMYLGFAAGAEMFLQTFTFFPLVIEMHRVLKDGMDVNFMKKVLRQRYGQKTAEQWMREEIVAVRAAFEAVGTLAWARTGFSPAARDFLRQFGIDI
# B1: OROV Gc spike region (residues 482-894 of the M polyprotein), recombinant, strain BeAn19991 (domain or fragment, Oropouche virus strain BeAn19991)
# chain: DEDCLSKDIKITYQELHNCIGPKIMGDTCVSKSELYSDLFSKNLVTEYDKKYFEPDTVNDQFNKIEFAQDAHRMILLERILYKTECEMLSLKKNSGPYNVAWRTYFKNHNIDLCSRHNYKMICQCINTHSMCKNTDIDYNKEIETYYKSNAAAYRADLNTIMDTLKTAFRGLTKVLIENYIEKDDSDALKALFSNITDSVQDNYQMIGILKFASKLLDINLGRSTRSAHHSIMTNEIPKSNPFTDYSYSNLNIKECMSPESLKCFKKRDSTPHTNHLLCKIDNKYKAFDWPEIETIQKGQKLCLGDSHCNLEFTAITADKIMSLTNCYKESFTAQPADMQAGIKKCSADEIGECTTLEDKTWPIIFCGGKYYYSDSKEHAKDGSINNYCLTNKCSEQRFPIHENWFKKCNWDK
# notes: Gc spike region (head and stalk domains) of the M polyprotein of Oropouche virus strain BeAn19991, GenBank AJE24679.1, residues 482-894; also called Gc spike domain
# How the values were obtained:
# [1] = target: T5, OROV glycoprotein Gc of strain BeAn19991, native, in virus stocks and infected cells (Oropouche virus strain BeAn19991, UniProt A0A0B5CLT0); test: ELISA; sandwich ELISA with nanobodies, […]; conditions: one partner purified
# T5 construct: On virus particles Gc stands with Gn; also called Gc spike; OROV BeAn19991
# [2] = target: T6, OROV glycoprotein Gc of strain TRVL, native, in virus stock (Oropouche virus strain TRVL (stand-in: …, UniProt A0A0B5CLT0, strain)); test: ELISA; sandwich ELISA with nanobodies, […]; conditions: one partner purified
# T6 construct: also called Gc spike; OROV TRVL
# [3] = target: B1; test: ELISA; […], biotinylated nanobody 2 µg/mL, […], room temperature; conditions: both partners purified
# [4] = target: T1, OROV nucleoprotein (N), recombinant, …; test: as above; conditions: both partners purified
# [5] = target: T1, OROV nucleoprotein (N), recombinant, …; test: ELISA; conditions: both partners purified
# [6] = target: T2, OROV nucleoprotein (N) of strain …; test: ELISA; conditions: one partner purified
# [7] = target: T3, OROV nucleoprotein (N) of strain TRVL, …; test: ELISA; conditions: one partner purified
# [8] = target: T7, nanobody-Fc fusion FcSpB6 (llama); test: ELISA; conditions: both partners purified
# T7 construct: as the VHH of m18; also called FcSpB6-HRP; OROV FcSpB6; not shown: Fc (human IgG1 hinge and Fc domains 2 and 3), C-terminal, kept
# [9] = target: T8, biotinylated nanobody-Fc fusion bFcSpC7 (C-terminal AviTag) (llama); test: ELISA; conditions: both partners purified
# T8 construct: as the VHH of m20; also called OROV FcSpC7 BAP; not shown: Fc (human IgG1 hinge and Fc domains 2 and 3), C-terminal, kept; AviTag, C-terminal, kept
# [10] = target: B1; test: ELISA; conditions: both partners purified
# [11] = target: T5, OROV glycoprotein Gc of strain …; test: ELISA; conditions: one partner purified
# [12] = target: T6, OROV glycoprotein Gc of strain TRVL, …; test: ELISA; conditions: one partner purified
# [13] = target: T2, OROV nucleoprotein (N) of strain …; test: ELISA; sandwich ELISA with nanobodies, […]; conditions: one partner purified
# [14] = target: T3, OROV nucleoprotein (N) of strain TRVL, …; test: ELISA; sandwich ELISA with nanobodies, […]; conditions: one partner purified
# [15] = target: T2, OROV nucleoprotein (N) of strain …; test: immunostaining of cells or tissue; conditions: one partner purified
# [16] = target: T4, OROV nucleoprotein (N) of the 2023-4 …; test: immunostaining of cells or tissue; conditions: one partner purified
# [17] = target: T5, OROV glycoprotein Gc of strain …; test: immunostaining of cells or tissue; conditions: one partner purified
# [18] = target: T9, OROV glycoprotein Gc of the 2023-4 epidemic isolate AM0088, native (Oropouche virus isolate AM0088 …, UniProt A0A0B5CLT0, strain); test: immunostaining of cells or tissue; conditions: one partner purified
# T9 construct: also called Gc spike; OROV AM0088
binder,measurement,setting,value
"biotinylated nanobody SpC7 (AviTag-His9) (VHH, VHH SpC7 from an immunised llama; also called bSpC7; (biotinylated)bSpC7; not shown: AviTag, C-terminal, kept) VHH: QVQLVESGGGLVQAGGSLRLSCAASGRTFSPNAMGWFRQAPGKEREFVSAISWSGGSTTYADSVKGRFTISRDNAKNTVSLQMNSLKPEDTAVYYCAADLEGMVVADRIWGQGTQVTVSS",binding result,[1],binds
same,binding result,[2],binds
same,binding result,[3],binds
"biotinylated nanobody NpA2 (AviTag-His9) (VHH, VHH NpA2 from an immunised llama; also called bNpA2; OROV Np Nb A2 BAP H9; not shown: AviTag, C-terminal, kept) VHH: QVQLVESGGGLVQPGGSVRLSCAASGGIFSFNAMAWYRQAPGKQRDIVALIANDGNTNYADSVKGRFTISRDNAKNTVYLQMNSLQPEDTAVYYCSALRRGAQDWGQGTQVTVSS",binding result,[4],binds
"nanobody NpF2, His8-tagged (VHH, as the VHH of m14; also called OROV Np Nb F2 H8; not shown: His8, C-terminal, kept) VHH: QVQLVESGGGAVQAGGSLRLSCAASGRTFSSFPMGWFRQAPGKEREFIAAINWSGASKYYADSVKGRFAISRDNAKNTVYLQMNSLTPEDTAVYSCAAGSGRYGYTFSKEYTYWGQGTQVIVAS",binding result,[5],binds
same,binding result,[6],binds
same,binding result,[7],binds
B1,binding result,[8],binds
same,binding result,[9],binds
"nanobody SpB6, His8-tagged (VHH, as the VHH of m18; also called OROV Gc Spike Nb B6 H8; not shown: His8, C-terminal, kept) VHH: QVQLVESGGGLVQPGDSLRLSCAASGRTFSNYAMGWFRQAPGKEREKVAALSRSGTSTYYLDRVKGRFTISRDNTKNMVYLQMNSLEPEDTAVYYCAADPLFQNAAYHYSGQGTQVTVST",binding result,[10],binds
same,binding result,[11],binds
same,binding result,[12],binds
"biotinylated nanobody NpE3 (AviTag-His9) (VHH, VHH NpE3 from an immunised llama; also called bNpE3; OROV Np Nb E3 BAP H9; not shown: AviTag, C-terminal, kept) VHH: QVQLVESGGGLVRPGGSLRLSCAASGFTFSNAYMTWIRQAPGKDLEWVSSIYYGDMTSYATSVKGRFTISRDNAKNTLYLQMNNLKPEDSAIYYCTKGDERGQGTQVTVSS",binding result,[5],binds
same,binding result,[13],binds
same,binding result,[14],binds
"AlexaFluor568-conjugated OROV NpE3 nanobody (Cys-His8) (VHH, as the VHH of m13; also called OROV Np Nb E3 CH8) VHH: QVQLVESGGGLVRPGGSLRLSCAASGFTFSNAYMTWIRQAPGKDLEWVSSIYYGDMTSYATSVKGRFTISRDNAKNTLYLQMNNLKPEDSAIYYCTKGDERGQGTQVTVSS",binding result,[15],binds
same,binding result,[16],binds
"AlexaFluor568-conjugated OROV SpE8 nanobody (Cys-His8) (VHH, as the VHH of m21; also called OROV Sp Nb E8 CH8) VHH: QVQLVESGGGFVRAGDSLRLSCAASGRAFSTYAMGWFRQAPGKEREFVAGITLGSRITQYADSVKGRFTISRDNARQTMYLQMNNLQPEDTADYYCAARGQGSPPLRNRWSADDYNYWGQGLQVTVSS",binding result,[17],binds
same,binding result,[18],binds
"biotinylated nanobody NpD2 (AviTag-His9) (VHH, VHH NpD2 from an immunised llama; also called bNpD2; OROV Np Nb D2 BAP H9; not shown: AviTag, C-terminal, kept) VHH: QVQLVESGGGLAQPGGSLRLSCAASGFTLDYYSIGWFRQAPGKEREGVSCISSGGSTYYADSVKGRFAISSDNAKNTVYLQMNSLKPEDTAVYYCAADIMSCPGKYSAVADYWGQGTQVIVDS",binding result,[4],binds
